Experimental data as given in publication PMC12880088.

Biological target: T1, rYeiE (YeiE-Strep-tag II) (Salmonella enterica serotype Typhimurium ATCC14028s) (UniProt Q8ZNK8)
T1 sequence: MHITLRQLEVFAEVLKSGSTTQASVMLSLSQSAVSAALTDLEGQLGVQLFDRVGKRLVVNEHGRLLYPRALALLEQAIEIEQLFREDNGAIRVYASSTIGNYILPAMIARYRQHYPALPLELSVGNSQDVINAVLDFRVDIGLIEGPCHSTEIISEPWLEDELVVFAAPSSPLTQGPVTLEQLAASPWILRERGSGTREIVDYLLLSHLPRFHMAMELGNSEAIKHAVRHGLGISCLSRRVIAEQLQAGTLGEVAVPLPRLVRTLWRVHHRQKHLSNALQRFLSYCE
Test: EMSA
Conditions: 150 mM KCl, 0.1 mM DTT, 0.1 mM EDTA, 10 mM Tris pH 7.4, 20 min at room temperature; 6% native PAGE, SYBR Green

Question: “GTTGAACCGCTTTTCAGTACTTCAGCAAACACTTCAAGTTGTCGTAGCGTAATATGCATAGTCGTATCCCACCGATAGCGTTTCACTTACCACTTATAAAGATTAATTATAAATATATAATCAATTTTATTTTTAAACCAGATCACCGTAACCTTATTGTCCATATACAGGAGAAGGTTATGACAGAACTCACCTTGCAGAATCATCGTCGTACAATGTGGCATTTTATACCGGGGCTCGCTCTGAGCGCCGTCATTACAGGAGTCGCCCTGTGGGGCGGCGCTATCCCTGCCGTTGCA (double strand) [PyeiE]” was tested. Which binding did it give?
Answer: Its binding is “binds”.
